Experimental findings from patent US20200079855A1 (Pfizer, published 2020) are described below.

“And” between values parts separate entries of the source, which are not always exact repeats. Identical values can stand only once. Where only a bound is given, the exact number is not on record here.

For test [1], the target named is T1, human αvβ8 integrin on U251 cells (human, UniProt P06756 31-1048). Briefly: cell-based or functional assay.
In test [2] the target is T1, human αvβ8 integrin on U251 cells. Briefly: apparent KD, flow cytometry on U251 cells.
Test [3] shares this target. Briefly: flow cytometry, IgG binding to U251 cells (ΔMFI, background subtracted); EC50 unit inferred, axis Log10 [Ab] (nM); Table 7 of the text gives U251 app KD 430 pM.
For test [4] the target is unchanged. Briefly: cell-based or functional assay. This is another data set of the same source.
The target of test [5] is recombinant human αvβ8 integrin (human) (UniProt P06756). Nature of the test: SPR (Biacore), Fab affinity of Table 3.
Test [6] has the same target. Briefly: ELISA (DELFIA counts) on human αvβ8, Fab titration.
Target sequence in this assay (P06756 31-992 limits assumed, form in doubt, chain 1 of 2): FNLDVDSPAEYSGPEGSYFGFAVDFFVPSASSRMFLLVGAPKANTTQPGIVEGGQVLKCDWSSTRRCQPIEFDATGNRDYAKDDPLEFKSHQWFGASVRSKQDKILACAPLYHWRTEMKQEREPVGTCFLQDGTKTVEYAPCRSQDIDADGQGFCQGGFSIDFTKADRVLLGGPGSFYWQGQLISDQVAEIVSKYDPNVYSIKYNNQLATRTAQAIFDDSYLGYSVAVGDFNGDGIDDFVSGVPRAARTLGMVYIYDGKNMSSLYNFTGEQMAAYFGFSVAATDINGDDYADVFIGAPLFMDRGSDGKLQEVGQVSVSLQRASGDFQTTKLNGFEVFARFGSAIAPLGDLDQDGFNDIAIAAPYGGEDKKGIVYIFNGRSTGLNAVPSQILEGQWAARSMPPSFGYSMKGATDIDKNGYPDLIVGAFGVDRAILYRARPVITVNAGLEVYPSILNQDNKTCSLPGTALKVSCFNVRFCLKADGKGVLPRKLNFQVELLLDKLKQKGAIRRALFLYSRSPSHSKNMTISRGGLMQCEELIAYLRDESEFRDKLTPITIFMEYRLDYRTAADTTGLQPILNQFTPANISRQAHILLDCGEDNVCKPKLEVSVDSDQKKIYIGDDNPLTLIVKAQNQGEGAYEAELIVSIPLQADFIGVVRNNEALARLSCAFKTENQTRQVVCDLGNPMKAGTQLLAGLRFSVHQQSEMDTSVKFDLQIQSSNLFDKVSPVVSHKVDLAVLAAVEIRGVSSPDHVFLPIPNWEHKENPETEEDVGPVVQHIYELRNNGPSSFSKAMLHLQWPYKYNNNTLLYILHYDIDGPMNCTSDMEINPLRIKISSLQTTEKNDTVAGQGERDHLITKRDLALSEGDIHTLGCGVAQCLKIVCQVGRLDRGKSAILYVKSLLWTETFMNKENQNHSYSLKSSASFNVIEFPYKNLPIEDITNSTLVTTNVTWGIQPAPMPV
Target sequence in this assay (chain, as listed by the source limits assumed, form in doubt, chain 2 of 2): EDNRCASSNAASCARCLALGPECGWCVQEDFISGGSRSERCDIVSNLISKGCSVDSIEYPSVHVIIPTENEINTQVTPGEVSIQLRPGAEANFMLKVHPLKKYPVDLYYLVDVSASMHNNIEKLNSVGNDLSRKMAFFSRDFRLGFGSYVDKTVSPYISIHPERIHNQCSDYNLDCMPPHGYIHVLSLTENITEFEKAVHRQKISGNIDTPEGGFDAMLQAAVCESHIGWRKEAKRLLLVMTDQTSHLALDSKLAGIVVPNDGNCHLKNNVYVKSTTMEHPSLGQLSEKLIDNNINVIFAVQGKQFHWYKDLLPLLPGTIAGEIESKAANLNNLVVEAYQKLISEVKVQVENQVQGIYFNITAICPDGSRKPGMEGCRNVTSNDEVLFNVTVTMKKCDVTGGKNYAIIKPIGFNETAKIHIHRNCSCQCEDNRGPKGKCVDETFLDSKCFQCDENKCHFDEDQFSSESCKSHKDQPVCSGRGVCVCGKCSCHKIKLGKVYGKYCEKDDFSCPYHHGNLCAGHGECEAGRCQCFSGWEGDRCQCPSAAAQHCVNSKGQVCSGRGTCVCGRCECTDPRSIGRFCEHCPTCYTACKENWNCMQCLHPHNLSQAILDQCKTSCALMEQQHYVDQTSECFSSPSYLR
Test [7] has the same target. Nature of the test: SPR (Biacore T200), Fab over biotinylated recombinant αvβ8 on streptavidin chip, n>=3.
The target in test [8] is T2, recombinant mouse αvβ8 integrin (mouse, UniProt P43406 31-988; Q0VBD0 22-681, limits assumed).
T2 construct: Recombinant protein immobilised on the Biacore chip
T2 sequence (P43406 31-988 limits assumed, chain 1 of 2): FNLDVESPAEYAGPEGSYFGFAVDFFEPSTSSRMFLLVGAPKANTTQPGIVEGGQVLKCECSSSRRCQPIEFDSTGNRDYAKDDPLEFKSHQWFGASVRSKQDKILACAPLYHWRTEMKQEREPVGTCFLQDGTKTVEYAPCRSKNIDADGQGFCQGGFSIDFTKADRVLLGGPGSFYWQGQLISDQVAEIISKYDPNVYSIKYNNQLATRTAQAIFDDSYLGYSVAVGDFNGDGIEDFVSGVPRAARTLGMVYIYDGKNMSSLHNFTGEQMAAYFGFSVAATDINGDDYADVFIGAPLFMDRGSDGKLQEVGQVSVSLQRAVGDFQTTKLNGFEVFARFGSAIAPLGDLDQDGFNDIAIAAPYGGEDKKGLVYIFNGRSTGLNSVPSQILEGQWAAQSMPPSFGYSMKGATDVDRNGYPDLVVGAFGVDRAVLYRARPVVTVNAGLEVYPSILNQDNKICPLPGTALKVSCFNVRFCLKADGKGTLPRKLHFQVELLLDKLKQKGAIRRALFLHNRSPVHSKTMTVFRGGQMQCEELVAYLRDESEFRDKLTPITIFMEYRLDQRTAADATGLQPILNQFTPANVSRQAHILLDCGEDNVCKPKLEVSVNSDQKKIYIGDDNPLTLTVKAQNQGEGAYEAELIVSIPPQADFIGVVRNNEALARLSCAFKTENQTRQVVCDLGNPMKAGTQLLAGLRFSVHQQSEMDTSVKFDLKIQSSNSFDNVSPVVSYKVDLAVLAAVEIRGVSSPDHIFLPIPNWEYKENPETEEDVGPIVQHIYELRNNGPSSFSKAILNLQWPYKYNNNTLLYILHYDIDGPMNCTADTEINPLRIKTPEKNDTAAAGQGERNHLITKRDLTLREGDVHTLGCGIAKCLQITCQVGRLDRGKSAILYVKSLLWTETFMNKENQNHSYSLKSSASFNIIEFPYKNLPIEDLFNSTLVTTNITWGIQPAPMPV
T2 sequence (Q0VBD0 22-681 limits assumed, chain 2 of 2): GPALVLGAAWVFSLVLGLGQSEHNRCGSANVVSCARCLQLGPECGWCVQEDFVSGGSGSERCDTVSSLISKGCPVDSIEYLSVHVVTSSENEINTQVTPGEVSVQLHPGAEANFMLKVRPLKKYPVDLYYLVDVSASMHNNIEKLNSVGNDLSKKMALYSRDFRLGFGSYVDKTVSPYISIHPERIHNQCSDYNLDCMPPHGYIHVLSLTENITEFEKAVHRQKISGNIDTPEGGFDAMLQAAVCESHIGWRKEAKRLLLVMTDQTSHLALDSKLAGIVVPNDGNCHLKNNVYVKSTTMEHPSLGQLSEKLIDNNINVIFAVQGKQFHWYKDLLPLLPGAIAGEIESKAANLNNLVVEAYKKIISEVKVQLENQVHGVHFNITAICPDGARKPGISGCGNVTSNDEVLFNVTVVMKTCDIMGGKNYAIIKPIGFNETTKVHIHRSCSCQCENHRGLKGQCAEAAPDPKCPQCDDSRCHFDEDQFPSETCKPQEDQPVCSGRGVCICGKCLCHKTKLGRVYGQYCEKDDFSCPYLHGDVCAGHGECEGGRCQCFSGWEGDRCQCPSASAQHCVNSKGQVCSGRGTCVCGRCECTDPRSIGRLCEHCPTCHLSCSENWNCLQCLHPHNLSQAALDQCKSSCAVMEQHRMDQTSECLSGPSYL
The description is as above. Here is the method:
(§1) More specifically, recombinant αvβ8 integrin (e.g., R&D Systems) was biotin labeled via primary amines and immobilized on a Sensor Chip SA using a Biacore™ T200 instrument (GE Healthcare Life Sciences). Fab binding experiments were performed at 25° C. using a 30 μl/min flow rate in 0.01 M HEPES pH 7.4, 0.15 M NaCl, 1-2 mM MgCl₂, and 0.005% v/v surfactant P20 (HBS-P) buffer. Association was monitored for 5-10 minutes and dissociation for a further 15-20 minutes for each Fab concentration. After each injection, the chip surface was regenerated with IgG elution buffer (Thermo Fisher Scientific). All data was analyzed using the Biacore™ T200 Evaluation software. Data was dual background subtracted using the adjacent flow cell coupled with streptavidin without captured integrin, and buffer only injections. Kinetic constants for at least three experiments were obtained and reported as the mean.
(§2) To evaluate the monomeric KD of the Fab ADWA11 2.4, also referred to herein as ADWA-11 VH05-2/VK01(2.4) and ADWA11 5-2 2.4, and the parental mouse IgG, recombinant human, cynomolgus, mouse, and rat αvβ8 was immobilized on a Biacore chip and the ka and kd of the Fabs were determined as generally described herein (Table 6).

The target in test [9] is T3, recombinant cynomolgus monkey αvβ8 integrin (cynomolgus monkey, limits assumed).
T3 construct: Recombinant protein immobilised on the Biacore chip; also called cyno αvβ8; cynomolgus αvβ8
T3 chain 1: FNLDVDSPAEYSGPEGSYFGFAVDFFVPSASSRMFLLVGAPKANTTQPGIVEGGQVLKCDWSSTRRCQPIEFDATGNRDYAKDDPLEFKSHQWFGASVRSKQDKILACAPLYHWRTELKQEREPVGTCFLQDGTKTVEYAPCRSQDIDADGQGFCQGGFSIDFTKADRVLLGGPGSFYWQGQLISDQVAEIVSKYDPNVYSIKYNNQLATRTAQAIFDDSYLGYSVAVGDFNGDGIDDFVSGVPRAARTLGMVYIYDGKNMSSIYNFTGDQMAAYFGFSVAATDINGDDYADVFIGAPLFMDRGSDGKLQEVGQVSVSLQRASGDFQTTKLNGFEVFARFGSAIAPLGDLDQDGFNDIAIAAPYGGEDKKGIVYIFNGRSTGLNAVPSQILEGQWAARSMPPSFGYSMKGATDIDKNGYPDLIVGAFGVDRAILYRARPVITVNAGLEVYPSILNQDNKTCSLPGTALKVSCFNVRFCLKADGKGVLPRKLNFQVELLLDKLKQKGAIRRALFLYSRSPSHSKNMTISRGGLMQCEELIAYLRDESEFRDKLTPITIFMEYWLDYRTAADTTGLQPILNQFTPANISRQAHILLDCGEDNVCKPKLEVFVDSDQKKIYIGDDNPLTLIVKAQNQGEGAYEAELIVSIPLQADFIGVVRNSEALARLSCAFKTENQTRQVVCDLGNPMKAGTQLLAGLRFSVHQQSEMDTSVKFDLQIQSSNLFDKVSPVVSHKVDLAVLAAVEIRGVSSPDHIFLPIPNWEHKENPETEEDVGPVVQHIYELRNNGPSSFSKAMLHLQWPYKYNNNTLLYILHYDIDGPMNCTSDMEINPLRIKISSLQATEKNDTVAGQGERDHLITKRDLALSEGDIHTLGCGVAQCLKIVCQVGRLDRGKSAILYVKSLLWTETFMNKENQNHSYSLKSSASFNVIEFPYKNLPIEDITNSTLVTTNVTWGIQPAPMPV
T3 chain 2: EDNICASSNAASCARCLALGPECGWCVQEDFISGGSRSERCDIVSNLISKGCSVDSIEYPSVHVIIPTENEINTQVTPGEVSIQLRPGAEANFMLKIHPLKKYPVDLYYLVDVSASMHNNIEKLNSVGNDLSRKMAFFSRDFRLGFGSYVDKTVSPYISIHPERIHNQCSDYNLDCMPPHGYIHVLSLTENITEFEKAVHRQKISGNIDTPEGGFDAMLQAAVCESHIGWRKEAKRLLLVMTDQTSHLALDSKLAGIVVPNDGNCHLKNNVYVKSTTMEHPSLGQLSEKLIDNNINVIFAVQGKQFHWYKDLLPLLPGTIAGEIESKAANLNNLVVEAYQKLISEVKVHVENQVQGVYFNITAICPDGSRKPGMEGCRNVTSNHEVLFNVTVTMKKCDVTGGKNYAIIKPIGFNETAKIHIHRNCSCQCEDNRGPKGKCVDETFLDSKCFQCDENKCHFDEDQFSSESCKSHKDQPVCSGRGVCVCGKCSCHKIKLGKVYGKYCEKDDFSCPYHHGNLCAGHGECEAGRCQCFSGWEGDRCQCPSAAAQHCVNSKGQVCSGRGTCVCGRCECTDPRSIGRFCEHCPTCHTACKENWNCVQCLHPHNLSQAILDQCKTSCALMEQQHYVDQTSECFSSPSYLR
The test is described as above. The procedure:
as §1, §2

The target of test [10] is T4, recombinant rat αvβ8 integrin (rat, UniProt F1LZX9 31-987; A0A0G2JVU1 43-682).
T4 construct: Recombinant protein immobilised on the Biacore chip
The test is described as above. The procedure: as §1, §2

Test [11] deals with recombinant human αvβ8 integrin (human) (UniProt P06756). Briefly: ELISA (DELFIA counts) on human αvβ8, Fab titration; identity of the molecule see the row before.
The target is the same in test [12]. Briefly: ELISA on human αvβ8 (legend box: human avb8), mAb titration.
Test [13] has as its target T5, recombinant human αvβ3 integrin (human, UniProt P06756 31-992; P05106 27-718).
T5 construct: Used in ELISA and immobilised on the Biacore chip; construct not described; also called hαvβ3; AVB3
Nature of the test: ELISA (title Specificity Binding ELISA), absorbance 450 nm against [mAb] (nM).

The target in test [14] is T6, recombinant human αvβ6 integrin (human, UniProt P06756 31-992; P18564 22-707).
T6 construct: Used in ELISA and immobilised on the Biacore chip; construct not described; also called hαvβ6; AVB6
T6 sequence (P18564 22-707 limits assumed, one chain of several): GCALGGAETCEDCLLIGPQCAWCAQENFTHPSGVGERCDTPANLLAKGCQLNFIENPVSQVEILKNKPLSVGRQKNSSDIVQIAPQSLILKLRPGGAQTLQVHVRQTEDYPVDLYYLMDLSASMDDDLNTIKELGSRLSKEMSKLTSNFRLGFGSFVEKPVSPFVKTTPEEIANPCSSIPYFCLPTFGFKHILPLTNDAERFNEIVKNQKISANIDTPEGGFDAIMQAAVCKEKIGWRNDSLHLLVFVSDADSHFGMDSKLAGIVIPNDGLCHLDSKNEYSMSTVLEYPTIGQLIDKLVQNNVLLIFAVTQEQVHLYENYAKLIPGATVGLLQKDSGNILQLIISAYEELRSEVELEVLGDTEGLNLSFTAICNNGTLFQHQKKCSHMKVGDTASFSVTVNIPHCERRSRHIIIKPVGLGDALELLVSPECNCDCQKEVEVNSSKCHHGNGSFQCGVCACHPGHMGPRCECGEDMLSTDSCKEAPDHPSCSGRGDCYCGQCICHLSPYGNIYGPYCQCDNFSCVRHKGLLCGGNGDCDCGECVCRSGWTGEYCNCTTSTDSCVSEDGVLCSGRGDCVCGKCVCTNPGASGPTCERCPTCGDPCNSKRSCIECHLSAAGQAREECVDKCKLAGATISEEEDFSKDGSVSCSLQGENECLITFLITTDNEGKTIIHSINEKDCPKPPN
The test is described as above.

Test [15] concerns the target T5, recombinant human αvβ3 integrin. Briefly: SPR (Biacore).
The target of test [16] is T6, recombinant human αvβ6 integrin. Briefly: SPR (Biacore).
Test [17] addresses recombinant human αvβ8 integrin (human) (UniProt P06756). Nature of the test: SPR (Biacore), Fab over immobilised recombinant αvβ8; the upper end is the human value of Tables 3 and 6.
The target of test [18] is T1, human αvβ8 integrin on U251 cells. Briefly: flow cytometry, IgG binding to U251 cells (ΔMFI, background subtracted); EC50 unit inferred, axis Log10 [Ab] (nM); Table 7 of the text gives the rounded value as U251 app KD 823 pM.

T5 sequence (P05106 27-718 limits assumed, one chain of several): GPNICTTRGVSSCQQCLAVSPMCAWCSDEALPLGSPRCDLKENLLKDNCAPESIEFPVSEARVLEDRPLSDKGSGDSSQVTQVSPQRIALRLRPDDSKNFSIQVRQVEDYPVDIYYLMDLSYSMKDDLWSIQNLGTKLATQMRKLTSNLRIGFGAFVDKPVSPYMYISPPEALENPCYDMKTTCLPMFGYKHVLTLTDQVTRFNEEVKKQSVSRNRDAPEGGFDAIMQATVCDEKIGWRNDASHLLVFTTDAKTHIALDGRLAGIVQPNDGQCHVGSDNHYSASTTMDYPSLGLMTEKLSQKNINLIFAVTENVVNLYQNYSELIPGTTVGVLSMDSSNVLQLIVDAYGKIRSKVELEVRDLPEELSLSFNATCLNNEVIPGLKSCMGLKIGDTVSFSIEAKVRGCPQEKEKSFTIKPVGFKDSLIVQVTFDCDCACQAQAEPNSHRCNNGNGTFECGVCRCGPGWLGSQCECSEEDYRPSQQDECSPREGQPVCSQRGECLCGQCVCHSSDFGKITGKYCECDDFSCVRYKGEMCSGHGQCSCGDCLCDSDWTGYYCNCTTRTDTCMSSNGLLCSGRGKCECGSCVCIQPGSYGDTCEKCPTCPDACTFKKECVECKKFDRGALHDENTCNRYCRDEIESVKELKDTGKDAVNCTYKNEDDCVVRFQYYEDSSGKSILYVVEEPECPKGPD

B1: hIgG_VH05VK01 (antibody, V domains shown)
VH: EVQLVESGGGLVQPGGSLRLSCAASGFNIKDYYMNWVRQAPGKGLEWVGWIDPDNGNTIYDPKFQGRFTISADTSKNSAYLQMNSLRAEDTAVYYCARRLLMDYWGQGTLVTVSS
VL: DIQMTQSPSSLSASVGDRVTITCRSTKSLLHFNGNTYLFWYQQKPGKAPKRLIYYMSNLASGVPSRFSGSGSGTDFTLTISSLQPEDFATYYCMQSLEYPFTFGQGTKVEIKR
As to B1, in test [1], the IgG Potency TGFB Assay IC50 (pM) turned out to be 148 pM. The Kd in test [2] is 0.43 nM. Further, the EC50 in test [3] amounted to 0.434 nM.

B2: ADWA11 VH05/VK01 Fab (Fab, V domains shown)
VH: B1 VH
VL: DIQMTQSPSSLSASVGDRVTITCRSTKSLLHFNGNTYLFWYQQKPGKAPKRLIYYMSNLASGVPSRFSGSGSGTDFTLTISSLQPEDFATYYCMQSLEYPFTFGQGTKVEIK
notes: Fab; also called VH05-2_VK01 parental
Take B2: in test [4], the “EC50 value measured by apparent affinity in the TGF-β transactivation assay” value is 1.3 nM. In addition, the Kd in test [5] is 0.05 nM and < 0.1 nM; in test [7], 0.118 nM; in test [8], at most 0.1 nM; in test [9] it was at most 0.1 nM; in test [10], 0.16 nM. Further, the fold lower KD than the mouse hybridoma antibody ADWA-11 in test [5] was over 5 fold. Moreover, the EC50 (read off the curve) in [6] and in [11] was 1 nM throughout. Also, the koff in [7] is 2.37e-05 s⁻¹; in test [8] it was at most 2e-05 s⁻¹; in [9], at most 2e-05 s⁻¹; in [10], 3.1e-05 s⁻¹. Moreover, the association rate constant (kon) in test [7] came to 200000 M⁻¹ s⁻¹; in test [8], 220000 M⁻¹ s⁻¹; in [9] it was 225000 M⁻¹ s⁻¹; in test [10], 194000 M⁻¹ s⁻¹.

B3: Mouse hybridoma antibody ADWA-11 (antibody, V domains shown)
VH: EVQLQQSGAELVRPGAFVKLSCKASGFNIKDYYMNWVLQRPEQGLEWIGWIDPDNGNTIYDPKFQGKASITADTSSNTAYLQLSSLTSEDTAVYYCARRLLMDYWGQGTSVTVSS
VL: DIVMTQAAPSVPVTPGESVSISCRSTKSLLHFNGNTYLFWFLQRPGQSPQRLIYYMSNLASGVPDRFSGRGSGTDFTLRISRVEAEDVGVYYCMQSLEYPFTFGTGTKLEIK
notes: Whole native murine IgG from the hybridoma; also called mADWA11; mADWA-11
Molecule B3 returned an IgG Potency TGFB Assay IC50 (pM) in test [1] of 183 pM. In test [12], the EC50 (read off the curve) came out at 0.3 nM. The binding result in [13] and in test [14] was “no binding (tested: about 500 nM)” throughout.

B4: Mouse hybridoma ADWA-11 Fab (Fab, V domains shown)
VH: B3 VH
VL: B3 VL
notes: Fab; also called mFab; Ms ADWA11 Fab
In the case of B4, the binding result in test [15] and in [16] was “no binding” throughout. Further, the “EC50 value measured by apparent affinity in the TGF-β transactivation assay” value in test [4] stood at 4.6 nM. The Kd is 0.536 nM in test [5]; 0.536 nM in test [7]; 0.489 nM in test [8]; 0.507 nM in test [9]; 0.489 to 0.536 nM in test [17]. The kon came out at 92200 M⁻¹ s⁻¹ in test [5], 92200 M⁻¹ s⁻¹ in [7], 103000 M⁻¹ s⁻¹ in test [8] and 98100 M⁻¹ s⁻¹ in test [9]. The koff in [7] was 4.86e-05 s⁻¹; in test [8], 5.03e-05 s⁻¹; in test [9], 4.97e-05 s⁻¹.

B5: ADWA-11_4 mut (antibody, mouse IgG1, V domains shown)
VH: B3 VH
VL: B3 VL
Turning to B5, the Kd in test [2] was 0.823 nM. This molecule came in with an EC50 in test [18] of 0.823 nM.
